Target: T1, DsRed fused to the Gal4 DNA binding domain (pGBT9) (Discosoma species)
T1 construct: range 1-147; also called DsRed-prey
Test: yeast two hybrid in HF7C (HIS3 and LacZ reporters)
Method: Yeast two hybrid assays were also performed. […] Alternatively, the yeast were grown on filters placed on plates lacking tryptophan and leucine to select for the bait and prey plasmids. After overnight growth, the filters were removed from the plates, frozen in liquid nitrogen, thawed, and incubated in X-gal overnight at 30° C. and two days at 4° C. to test for β-galactosidase activity (assayed by blue color development).

B1: DsRed fused to the Gal4 activation domain (pGAD GH) (other)
chain: ANFNQSGNIADSSLSFTFTNSSNGPNLITTQTNSQALSQPIASSNVHDNFMNNEITASKIDDGNNSKPLSPGWTDQTAYNAFGITTGMFNTTTMDDVYNYLFDDEDTPPNPKKEMRSSKNVIKEFMRFKVRMEGTVNGHEFEIEGEGEGRPYEGHNTVKLKVTKGGPLPFAWDILSPQFQYGSKVYVKHPADIPDYKKLSFPEGFKWERVMNFEDGGVVTVTQDSSLQDGCFIYKVKFIGVNFPSDGPVMQKKTMGWEASTERLYPRDGVLKGEIHKALKLKDGGHYLVEFKSIYMAKKPVQLPGYYYVDSKLDITSHNEDYTIVEQYERTEGRHHLFL
notes: range 768-881; also called DsRed-bait
B1: binds.

Source: patent publication US20040259165A1 (published 2004)
